Measured values published in patent US12570698B2, “Stabilized peptides for covalent binding to target protein” (Dana-Farber Cancer Institute, Inc., priority 2015, dated 2026).
Bridge positions count the residues as written; N and C are the ends. Square brackets hold non-standard residues; d marks the D form. Ends that are not written are not given here. S5 = C=CCCC[C@](C)(N)C(=O)O

Key:
[1] = target: T1, GST-MCL-1ΔNΔC (Homo sapiens, UniProt Q07820); test: Streptavidin pull-down from anti-apoptotic protein mixture; type: binding; conditions: 1:1:1:1 mixture, 1 μM each, biotinylated SAHBs
T1 construct: MCL-1ΔNΔC (aa 170-327) and BCL-XLΔC (aa 1-212) constructs were cloned into pGEX-4T-1; made in house; host or cells: Escherichia coli BL21(DE3)
From the text: We next explored how conversion of NOXA and BIM SAHBs to BFL-1 C55-reactive agents influenced the balance between noncovalent and covalent SAHB interactions in the context of an anti-apoptotic protein mixture. First, we generated recombinant MCL-1ΔNΔC, BCL-XLΔC and BFL-1ΔC proteins with differential N-terminal tags (GST, tagless, and His, respectively) so that each could be readily identified upon gel electrophoresis and silver stain (FIG. 13A-B).
Streptavidin Pull-down: Recombinant His-BFL-1ΔC, BCL-XLΔC (tagless) and GST-MCL-1ΔNΔC (1 μM each) were combined and reduced with 3 mM DTT in PBS for 30 min at RT, and then incubated with 1 μM biotinylated SAHBA, SAHBA-3 or vehicle for 4 h at RT. The mixtures were then combined with PBS-washed high-capacity SA agarose (Thermo Fisher Pierce) and incubated with rotation for 2 h at RT. The beads were centrifuged at 3000 rpm, washed twice with NP-40 lysis buffer (1% NP40, 50 mM Tris pH 8.0, 100 mM NaCl, 2.5 mM MgCl2), once with PBS, and then bound protein eluted by boiling in 10% SDS containing 10 mg/mL biotin. Inputs (10%) and eluates were electrophoresed on a 12% Bis-Tris gel and then subjected to silver stain and imaging.

[2] = target: T2, BFL-1ΔC (Homo sapiens, UniProt Q16548, C19S/C4S/C55S); test: In vitro covalent conjugation assay; type: binding; conditions: lacks C55; oxidizing conditions
T2 construct: cDNA encoding BFL-1ΔC (aa 1-153) was cloned into the pET19b expression vector; made in house; host or cells: Escherichia coli BL21(DE3) LOBSTR
T2 sequence (Q16548 1-153 C4S/C19S/C55S): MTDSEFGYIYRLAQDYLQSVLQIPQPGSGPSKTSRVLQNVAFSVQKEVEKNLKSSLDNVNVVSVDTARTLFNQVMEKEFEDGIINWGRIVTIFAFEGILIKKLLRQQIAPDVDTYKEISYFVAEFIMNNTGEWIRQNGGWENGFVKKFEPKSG
Description: In Vitro Covalent Conjugation Assay: BFL-1ΔC constructs (40 μM) were combined with NOXA SAHBA or NOXA SAHBA C25S (120 μM) and 10 mM DTT in 50 mM Tris pH 8.0, 100 mM NaCl (final volume, 5 μL), and then incubated in the dark for 1 h at room temperature (RT). After this incubation in a reducing environment, the mixture was diluted 5-fold into 50 mM Tris pH 8.0, 100 mM NaCl, 12 mM GSSG and incubated in the dark for an additional 30 min at RT. The samples were then boiled in 4× loading buffer lacking DTT and electrophoresed on 12% Bis-Tris gel. The gel was rinsed with water, subjected to FITC scan (Typhoon FLA 9500, GE Healthcare) and then Coomassie staining.
For warhead-bearing SAHBs, His-BFL-1ΔC C4S/C19S protein was pretreated with 10 mM DTT in 50 mM Tris pH 8.0, 100 mM NaCl for 30 min at RT (final volume, 9.5 μL), and then combined with a 10:1 molar ratio of NOXA SAHBA or BIM SAHBA peptides bearing warheads 1-8 (final volume, 10 μL) for an additional 2 h incubation at RT. Processing for gel electrophoresis and Coomassie staining was performed as above.

T1 sequence (Q07820 170-327, stated change not applied): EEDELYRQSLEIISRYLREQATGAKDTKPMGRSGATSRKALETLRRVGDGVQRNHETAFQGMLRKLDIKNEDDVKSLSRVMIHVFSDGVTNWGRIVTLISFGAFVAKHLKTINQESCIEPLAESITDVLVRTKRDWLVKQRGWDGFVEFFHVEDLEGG

Substance: NOXA SAHBA: stapled NOXA BH3 (aa 19-43) peptide, i, i+4 all-hydrocarbon staple substituting R31 and K35; SEQ ID NO:124 (AELEVECATQLR[S5]FGD[S5]LNFRQKLL; staple 13-17; not fully specified)
- MCL-1ΔNΔC capture in SA pull-down [1]: prominent non-covalent capture of MCL-1ΔNΔC
- disulfide adduct with BFL-1ΔC C4S/C19S/C55S [2]: no adduct
